This is an account of results in publication PMC8931191.

The target in this assay is 3HA-MCHR1 (melanin-concentrating hormone receptor 1) (mouse) (UniProt Q8JZL2).
Sequence of UniProt Q8JZL2 (Q8JZL2 whole entry): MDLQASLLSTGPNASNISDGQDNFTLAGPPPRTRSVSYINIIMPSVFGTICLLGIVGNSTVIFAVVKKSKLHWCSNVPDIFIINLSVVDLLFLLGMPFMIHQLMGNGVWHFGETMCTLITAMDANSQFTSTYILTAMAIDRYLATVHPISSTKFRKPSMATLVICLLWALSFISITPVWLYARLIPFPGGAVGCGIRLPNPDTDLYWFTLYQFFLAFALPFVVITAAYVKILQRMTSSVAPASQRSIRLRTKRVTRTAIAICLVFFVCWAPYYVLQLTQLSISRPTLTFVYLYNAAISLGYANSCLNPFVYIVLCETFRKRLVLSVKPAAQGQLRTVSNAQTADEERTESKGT

DFDMLRCMLGRVYRPCWQV [Melanin concentrating hormone (MCH)] showed a LogEC50 of MCH (10^-11 to 10^-6 M), NFAT-luciferase Ca2+ reporter in HEK293T cells with MCHR1 alone of -8.15 log M; a LogEC50 of MCH, NFAT-luciferase Ca2+ reporter in HEK293T cells with MCHR1 and MRAP2 WT co-transfected (1:9) of -7.06 log M; a LogEC50 of MCH, NFAT-luciferase Ca2+ reporter in HEK293T cells with MCHR1 and MRAP2 t97 co-transfected (1:9) of -7.34 log M; a LogEC50 of MCH, NFAT-luciferase Ca2+ reporter in HEK293T cells with MCHR1 and MRAP2 t118 co-transfected (1:9) of -7.59 log M. The LogEC50 of MCH, NFAT-luciferase Ca2+ reporter in HEK293T cells with MCHR1 and MRAP2 t143 co-transfected (1:9) is -7.6 log M; the LogEC50 of MCH, NFAT-luciferase Ca2+ reporter in HEK293T cells with MCHR1 and MRAP2 Δ4–11 co-transfected (1:9) is -7.24 log M; the LogEC50 of MCH, NFAT-luciferase Ca2+ reporter in HEK293T cells with MCHR1 and MRAP2 Δ12–25 co-transfected (1:9) was -6.76 log M; the LogEC50 of MCH, NFAT-luciferase Ca2+ reporter in HEK293T cells with MCHR1 and MRAP2 Δ26–35 co-transfected (1:9) was -7.55 log M. The same molecule gave a LogEC50 of MCH, NFAT-luciferase Ca2+ reporter in HEK293T cells with MCHR1 and MRAP2 Δ36–45 co-transfected (1:9) of -6.64 log M; a LogEC50 of MCH, NFAT-luciferase Ca2+ reporter in HEK293T cells with MCHR1 and MRAP2 Δct co-transfected (1:9) of -7.51 log M.
